Columns and labels:
[1] = target: T1, PUM2-HD (Pumilio-homology domain) (Homo sapiens, UniProt Q8TB72 706-1056); test: EMSA
[2] = target: T2, PUM1-HD (Pumilio-homology domain) (Homo sapiens, UniProt Q14671 828-1176); test: EMSA
[3] = target: T2, PUM1-HD (Pumilio-homology domain); test: crystal structure
[4] = target: T1, PUM2-HD (Pumilio-homology domain); test: crystal structure

T2 sequence (Q14671 828-1176): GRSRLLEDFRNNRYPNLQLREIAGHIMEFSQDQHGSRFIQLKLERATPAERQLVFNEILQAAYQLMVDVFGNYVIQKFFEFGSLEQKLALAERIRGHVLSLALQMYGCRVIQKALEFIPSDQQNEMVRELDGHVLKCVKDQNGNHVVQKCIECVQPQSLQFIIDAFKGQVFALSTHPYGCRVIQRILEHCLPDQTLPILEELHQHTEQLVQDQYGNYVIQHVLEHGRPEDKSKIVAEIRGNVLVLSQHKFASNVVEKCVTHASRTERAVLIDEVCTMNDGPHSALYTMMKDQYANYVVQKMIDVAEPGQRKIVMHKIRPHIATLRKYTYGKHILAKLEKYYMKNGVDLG
T1 sequence (Q8TB72 706-1056): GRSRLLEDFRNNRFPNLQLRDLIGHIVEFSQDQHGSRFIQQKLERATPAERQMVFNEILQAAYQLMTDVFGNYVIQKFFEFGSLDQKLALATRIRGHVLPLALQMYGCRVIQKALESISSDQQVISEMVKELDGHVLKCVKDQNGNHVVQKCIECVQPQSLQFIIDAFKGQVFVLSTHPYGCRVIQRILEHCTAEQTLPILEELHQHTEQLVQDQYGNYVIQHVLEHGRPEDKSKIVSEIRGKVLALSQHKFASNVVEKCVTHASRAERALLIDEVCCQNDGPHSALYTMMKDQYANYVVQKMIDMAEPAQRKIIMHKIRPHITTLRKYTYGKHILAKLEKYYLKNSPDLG

Binder	Kd [1] [nM]	Kd [2] [nM]	binding result [3]	binding result [4]
UGUAGAUA (ssRNA) [p38α NREb]	0.08 ± 0.01	0.63 ± 0.01	–	–
UGUAUAUA (ssRNA) [hb NRE1]	0.36 ± 0.02	0.4 ± 0.01	–	–
UGUACAUC (ssRNA) [erk2 NRE]	–	–	binds	binds
UGUAAAUA (ssRNA) [p38α NREa]	0.17 ± 0.02	0.91 ± 0.08	–	–
UGUACAUA (ssRNA) [hb NRE2]	0.07 ± 0.01	1.01 ± 0.05	–	–
